In the supplement of paper PMC7125110:
± gives the standard error. For some assays here: This sample holds only a part of the variants without activity.

B1: glmS ribozyme (parent)
chain: AUAAAAGCGCCAGAACUACAGAAAUGUAGUUGACGAGGAGGAGGUUUAUCGAAUUUUCGGCGGAUGCCUCCAAA

Tests used:
Conditions in all cases: with glucosamine-6-phosphate
glucosamine-6-phosphate [1] = variants of: B1; assay: kcat; higher = faster cleavage; RNA array
In short: (§1)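 Sequenced MiSeq chips were the platform: E. coli RNA polymerase transcribed barcoded ribozyme variants on them in situ, and a hybridised Cy3 probe tracked these at 37 °C. After glucosamine-6-phosphate (40 μM to 10 mM) in HEPES/KCl/Mg(OAc)2 buffer was flowed in, tiles were imaged over ~14 h. Signals normalised to baseline and to non-cleaving reference variants were reduced to per-tile medians and fit to one- or two-exponential decays to obtain kobs. kcat and KM were derived through weighted Michaelis–Menten fits across concentrations.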

glucosamine-6-phosphate [2] = variants of: B1; assay: self-cleavage kobs at 40 uM GlcN6P; higher = faster cleavage; RNA array
In short: as §1

glucosamine-6-phosphate [3] = variants of: B1; assay: self-cleavage kobs at 160 uM GlcN6P; higher = faster cleavage; RNA array
In short: as §1

glucosamine-6-phosphate [4] = variants of: B1; assay: self-cleavage kobs at 640 uM GlcN6P; higher = faster cleavage; RNA array
In short: as §1

glucosamine-6-phosphate [5] = variants of: B1; assay: self-cleavage kobs at 2500 uM GlcN6P; higher = faster cleavage; RNA array
In short: as §1

glucosamine-6-phosphate [6] = variants of: B1; assay: self-cleavage kobs at 10000 uM GlcN6P; higher = faster cleavage; RNA array
In short: as §1

glucosamine-6-phosphate [7] = variants of: B1; assay: KM; higher = weaker cofactor use; RNA array
In short: as §1

| Variant | kcat (glucosamine-6-phosphate [1]) [s⁻¹] | self-cleavage kobs at 40 uM GlcN6P (glucosamine-6-phosphate [2]) [s⁻¹] | self-cleavage kobs at 160 uM GlcN6P (glucosamine-6-phosphate [3]) [s⁻¹] | self-cleavage kobs at 640 uM GlcN6P (glucosamine-6-phosphate [4]) [s⁻¹] | self-cleavage kobs at 2500 uM GlcN6P (glucosamine-6-phosphate [5]) [s⁻¹] | self-cleavage kobs at 10000 uM GlcN6P (glucosamine-6-phosphate [6]) [s⁻¹] | KM (glucosamine-6-phosphate [7]) [µM] |
| --- | --- | --- | --- | --- | --- | --- | --- |
| U54G U69G | 7.3e-05 ± 1.5e-05 | 3.86e-05 ± 1.3e-05 | 8.46e-05 ± 2.2e-05 | 9.61e-05 ± 1.4e-05 | 8.77e-05 ± 1.5e-05 | 4.86e-05 ± 1.1e-05 |  |
| C16A U65C | 2.42e-05 ± 3.7e-08 |  |  |  |  |  | 654 ± 8.5 |
| G29U G37A | 0.000503 ± 4.3e-05 |  |  | 8.23e-05 ± 1.1e-05 | 0.000188 ± 3.4e-05 | 0.000383 ± 4.6e-05 | 3470 ± 490 |
| G43U U49C | < 1e-05 | < 1e-05 | < 1e-05 | < 1e-05 | < 1e-05 |  |  |
| A36U C50G U69G | 0.000296 ± 5.6e-05 | 0.000397 ± 0.00012 | 0.000219 ± 6e-05 | 0.00036 ± 0.00012 | 0.000275 ± 0.00013 | 0.000368 ± 8.1e-05 |  |
| G13C U31C | 0.0015 ± 0.00033 | 3.14e-05 ± 1e-05 | 0.000104 ± 4.3e-05 | 0.000211 ± 2.9e-05 | 0.000748 ± 0.00013 | 0.00109 ± 0.00014 | 3460 ± 1200 |
| A6U A23C U30G | 5.38e-05 ± 1.9e-06 |  |  |  |  | 4.19e-05 ± 1.6e-05 | 2780 ± 300 |
| U55A G59A | 6.57e-05 ± 1.4e-05 |  |  |  | 5.76e-05 ± 1.7e-05 | 5.69e-05 ± 1.3e-05 |  |
| G32A A53U | 0.00208 ± 0.00084 | 3.74e-05 ± 9.9e-06 | 0.000175 ± 3.9e-05 | 0.000595 ± 0.0001 | 0.00067 ± 0.00016 | 0.00228 ± 0.0003 |  |
| A14U U69A | 0.000113 ± 2e-05 |  |  | 5.17e-05 ± 1.1e-05 | 7.13e-05 ± 1.7e-05 | 0.000122 ± 2.4e-05 | 802 ± 390 |
| U47A C71G | 0.000753 ± 9.5e-05 | 2.61e-05 ± 8.5e-06 | 0.000142 ± 4.2e-05 | 0.000227 ± 5.2e-05 | 0.00055 ± 0.00011 | 0.000682 ± 9.3e-05 | 1130 ± 300 |
| A42G A64G | 0.024 ± 0.0071 | 0.000694 ± 0.00014 | 0.0024 ± 0.00059 | 0.00754 ± 0.0017 | 0.0422 ± 0.015 | 0.0194 ± 0.0055 | 1370 ± 520 |
| A14U A36G G66U | < 1e-05 |  |  | < 1e-05 |  | < 1e-05 |  |
| A39U G40A C67A | 0.000278 ± 2.3e-05 |  |  | 0.000124 ± 3.1e-05 | 0.000245 ± 6.5e-05 | 0.000247 ± 5e-05 | 760 ± 190 |
| U56A U69A | 9.71e-05 ± 1.6e-05 | 4e-05 ± 1.1e-05 | 5e-05 ± 1.3e-05 | 8.46e-05 ± 1.2e-05 | 0.000155 ± 2.3e-05 | 8.66e-05 ± 1.1e-05 |  |
| A14U A15G G43A | 1.46e-05 ± 6.9e-06 |  |  |  |  |  |  |
| G29A A33C | 5.32e-05 ± 1.2e-05 | < 1e-05 |  |  | 5.47e-05 ± 1.8e-05 | 4.65e-05 ± 1.4e-05 |  |

| Variant | kcat (glucosamine-6-phosphate [1]) [s⁻¹] | self-cleavage kobs at 40 uM GlcN6P (glucosamine-6-phosphate [2]) [s⁻¹] | self-cleavage kobs at 160 uM GlcN6P (glucosamine-6-phosphate [3]) [s⁻¹] | self-cleavage kobs at 640 uM GlcN6P (glucosamine-6-phosphate [4]) [s⁻¹] | self-cleavage kobs at 2500 uM GlcN6P (glucosamine-6-phosphate [5]) [s⁻¹] | self-cleavage kobs at 10000 uM GlcN6P (glucosamine-6-phosphate [6]) [s⁻¹] | KM (glucosamine-6-phosphate [7]) [µM] |
| --- | --- | --- | --- | --- | --- | --- | --- |
| G40C C58A | 1.41e-05 ± 2.3e-06 |  | < 1e-05 |  |  |  |  |
| G29U A48U | 4.34e-05 ± 5.3e-06 |  |  |  | 4.72e-05 ± 1.3e-05 | 3.9e-05 ± 9.4e-06 |  |
| A15G G66C | 0.000786 ± 0.00011 | 3.37e-05 ± 1.1e-05 | 0.000115 ± 2.5e-05 | 0.000368 ± 6e-05 | 0.000793 ± 0.00014 | 0.000649 ± 9.7e-05 | 833 ± 220 |
| A52U C71U | 0.000457 ± 4e-05 |  |  | 0.0001 ± 1.4e-05 | 0.000275 ± 2.9e-05 | 0.000362 ± 3.4e-05 | 2130 ± 390 |
| A36U U54A | < 1e-05 |  |  |  |  |  |  |
| G41U U65A | 0.000223 ± 4.3e-05 |  |  | 8.03e-05 ± 8.5e-06 | 0.000238 ± 3.1e-05 | 0.000183 ± 2e-05 | 1090 ± 470 |
| A6U A39U | 0.000104 ± 2.7e-06 |  |  | 2.53e-05 ± 8.4e-06 | 5.5e-05 ± 7.8e-06 | 8.67e-05 ± 1.1e-05 | 2160 ± 150 |
| A14U U54C C67U | 0.00203 ± 0.00034 | 5.21e-05 ± 1.9e-05 | 0.000164 ± 2.3e-05 | 0.000887 ± 0.00023 | 0.00131 ± 0.00025 | 0.00163 ± 0.0003 | 1680 ± 410 |
| A33C A36C G43A A52U | < 1e-05 |  |  |  |  |  |  |
| U55A G66A | 0.0303 ± 0.014 | 0.000654 ± 7.1e-05 | 0.00137 ± 0.0003 | 0.00563 ± 0.00082 | 0.015 ± 0.0035 | 0.0286 ± 0.0061 |  |
| U31A A48C | 0.000149 ± 3.3e-05 |  |  | 4.87e-05 ± 1.3e-05 | 7.42e-05 ± 1.5e-05 | 0.00014 ± 2.4e-05 |  |
| A12G A14U C58A G66C | 0.000245 ± 7.5e-05 |  |  |  |  | 8.77e-05 ± 2.7e-05 |  |
| A12G A39U | 0.000523 ± 9.7e-05 |  |  | 6.01e-05 ± 1.2e-05 | 0.000246 ± 4.1e-05 | 0.00035 ± 4.6e-05 | 4350 ± 1400 |
| A12G A39G | 0.0017 ± 0.00036 |  | 3.92e-05 ± 9.9e-06 | 0.00022 ± 2.9e-05 | 0.000622 ± 9e-05 | 0.00109 ± 0.00014 | 4960 ± 1500 |
| C50A U55G | 2.27e-05 ± 2.2e-06 |  |  |  |  |  |  |
| C50G C71U | 0.000123 ± 2.1e-05 | 6.9e-05 ± 9.9e-06 | 0.000107 ± 1e-05 | 0.000194 ± 2.7e-05 | 0.000103 ± 1.3e-05 |  |  |
